Measurements as given in the supplement of paper PMC9112550, “Optimization of the antimicrobial peptide Bac7 by deep mutational scanning” (BMC Biology, 2022).

These sequences were tested on Escherichia coli TOP10 (assay: shrunken log2 fold change of peptide-encoding DNA abundance (4.5 h post-induction vs induction); higher = less antimicrobial activity (less host growth inhibition)). Settings: time post-induction: 4.5 h; library: site-saturation at positions 5, 18, 19, 20.
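Note: peptides expressed intracellularly from a pBAD plasmid library in pooled LB shake-flask culture, induced with 0.3% L-arabinose, DNA abundance read by NGS, three biological replicates, DESeq2 with apeglm shrinkage.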

| Sequence | shrunken log2 fold change |
| --- | --- |
| RRIRGRPPRLPRPRPRPSRRPRP | 0.647 |
| RRIRTRPPRLPRPRPRPPDHPRP | 0.112 |
| RRIRHRPPRLPRPRPRPKVYPRP | 0.0338 |
| RRIRCRPPRLPRPRPRPWMLPRP | -0.419 |
| RRIRFRPPRLPRPRPRPKWMPRP | -0.235 |
| RRIRYRPPRLPRPRPRPSTIPRP | -0.324 |
| RRIRDRPPRLPRPRPRPWLDPRP | 0.0593 |
| RRIRHRPPRLPRPRPRPNIAPRP | -0.112 |
| RRIRNRPPRLPRPRPRPFNNPRP | -0.193 |
| RRIRMRPPRLPRPRPRPSRKPRP | 0.148 |
| RRIRYRPPRLPRPRPRPGHSPRP | -0.13 |
| RRIRARPPRLPRPRPRPGSSPRP | -0.112 |
| RRIRARPPRLPRPRPRPLYTPRP | -0.0964 |
| RRIRWRPPRLPRPRPRPEVYPRP | -0.0423 |
| RRIRHRPPRLPRPRPRPSKEPRP | -0.0697 |
| RRIRERPPRLPRPRPRPGCDPRP | 0.0125 |
| RRIRNRPPRLPRPRPRPNQPPRP | -0.055 |
| RRIRARPPRLPRPRPRPPRNPRP | 0.965 |
| RRIRARPPRLPRPRPRPEKHPRP | 0.0578 |
| RRIRPRPPRLPRPRPRPWSFPRP | -0.185 |
| RRIRKRPPRLPRPRPRPWKQPRP | 0.0185 |
| RRIRDRPPRLPRPRPRPFWNPRP | -0.28 |
| RRIRMRPPRLPRPRPRPGGIPRP | 0.545 |
| RRIRWRPPRLPRPRPRPGMWPRP | 0.729 |
| RRIRHRPPRLPRPRPRPVHGPRP | 0.131 |

| Sequence | shrunken log2 fold change |
| --- | --- |
| RRIRCRPPRLPRPRPRPEFRPRP | -0.0284 |
| RRIRMRPPRLPRPRPRPDTVPRP | 0.00533 |
| RRIRQRPPRLPRPRPRPPPEPRP | 0.952 |
| RRIRMRPPRLPRPRPRPCFDPRP | 0.0386 |
| RRIRFRPPRLPRPRPRPGFEPRP | -0.0266 |
| RRIRARPPRLPRPRPRPKKYPRP | -0.232 |
| RRIRPRPPRLPRPRPRPEFFPRP | -0.00122 |
| RRIRSRPPRLPRPRPRPEEMPRP | -0.0122 |
| RRIRPRPPRLPRPRPRPVARPRP | 0.245 |
| RRIRDRPPRLPRPRPRPRNWPRP | 0.615 |
| RRIRARPPRLPRPRPRPWCEPRP | 0.404 |
| RRIRPRPPRLPRPRPRPRTAPRP | 0.562 |
| RRIRHRPPRLPRPRPRPWWTPRP | 0.00261 |
| RRIRMRPPRLPRPRPRPNQNPRP | 0.079 |
| RRIRERPPRLPRPRPRPEHSPRP | -0.312 |
| RRIRKRPPRLPRPRPRPIFYPRP | -0.0532 |
| RRIRVRPPRLPRPRPRPPWRPRP | 0.57 |
| RRIRCRPPRLPRPRPRPPIHPRP | -0.248 |
| RRIRSRPPRLPRPRPRPMTMPRP | -0.245 |
| RRIRVRPPRLPRPRPRPFWSPRP | 0.0887 |
| RRIRHRPPRLPRPRPRPKVPPRP | 0.0497 |
| RRIRRRPPRLPRPRPRPEWSPRP | 0.274 |
| RRIRLRPPRLPRPRPRPSGFPRP | -0.259 |
| RRIRSRPPRLPRPRPRPACLPRP | 0.0251 |
| RRIRPRPPRLPRPRPRPDKKPRP | -0.429 |

| Sequence | shrunken log2 fold change |
| --- | --- |
| RRIRNRPPRLPRPRPRPAGFPRP | 0.0141 |
| RRIRHRPPRLPRPRPRPNNVPRP | -0.68 |
| RRIRDRPPRLPRPRPRPVWYPRP | -0.134 |
| RRIRSRPPRLPRPRPRPNNQPRP | -0.104 |
| RRIRIRPPRLPRPRPRPYKVPRP | -0.385 |
| RRIRVRPPRLPRPRPRPQKPPRP | 0.116 |
| RRIRCRPPRLPRPRPRPGRGPRP | 1.18 |
| RRIRLRPPRLPRPRPRPYVEPRP | -0.322 |
| RRIRLRPPRLPRPRPRPFACPRP | 0.119 |
| RRIRFRPPRLPRPRPRPDHLPRP | -0.00942 |
| RRIRGRPPRLPRPRPRPAQFPRP | 0.199 |
| RRIRYRPPRLPRPRPRPATFPRP | -0.681 |
| RRIRCRPPRLPRPRPRPFGNPRP | -0.365 |
| RRIRWRPPRLPRPRPRPTTMPRP | -0.0212 |
| RRIRWRPPRLPRPRPRPTEVPRP | 0.0181 |
| RRIRWRPPRLPRPRPRPSEAPRP | 0.0701 |
| RRIRVRPPRLPRPRPRPEYRPRP | -0.115 |
| RRIRARPPRLPRPRPRPRSHPRP | 0.223 |
| RRIRDRPPRLPRPRPRPTVPPRP | -0.326 |
| RRIRNRPPRLPRPRPRPEQQPRP | 0.736 |
| RRIRKRPPRLPRPRPRPQARPRP | -0.0213 |
| RRIRPRPPRLPRPRPRPNAWPRP | 0.356 |
| RRIRIRPPRLPRPRPRPYHDPRP | -0.28 |
| RRIRWRPPRLPRPRPRPKLWPRP | 1.06 |
| RRIRWRPPRLPRPRPRPGTVPRP | -0.148 |

| Sequence | shrunken log2 fold change |
| --- | --- |
| RRIRDRPPRLPRPRPRPPNPPRP | 0.0735 |
| RRIRCRPPRLPRPRPRPWHSPRP | 0.112 |
| RRIRWRPPRLPRPRPRPWVGPRP | 0.207 |
| RRIRNRPPRLPRPRPRPQGFPRP | -0.00956 |
| RRIRARPPRLPRPRPRPHNKPRP | -0.398 |
| RRIRQRPPRLPRPRPRPKHDPRP | -0.121 |
| RRIRNRPPRLPRPRPRPVGYPRP | 0.025 |
| RRIRERPPRLPRPRPRPNVHPRP | -0.344 |
| RRIRGRPPRLPRPRPRPCYRPRP | -0.0861 |
| RRIRFRPPRLPRPRPRPMCDPRP | 0.226 |
| RRIRVRPPRLPRPRPRPVMHPRP | -0.0179 |
| RRIRRRPPRLPRPRPRPRMWPRP | 0.431 |
| RRIRVRPPRLPRPRPRPHPPPRP | 0.361 |
| RRIRFRPPRLPRPRPRPYTVPRP | -0.00354 |
| RRIRHRPPRLPRPRPRPHPRPRP | 0.224 |
| RRIRWRPPRLPRPRPRPMWDPRP | 0.157 |
| RRIRSRPPRLPRPRPRPRAPPRP | 0.716 |
| RRIRVRPPRLPRPRPRPAQHPRP | 0.151 |
| RRIRDRPPRLPRPRPRPQSSPRP | 0.0176 |
| RRIRLRPPRLPRPRPRPWPPPRP | 0.668 |
| RRIRIRPPRLPRPRPRPDKIPRP | -0.0602 |
| RRIRERPPRLPRPRPRPHHGPRP | -0.43 |
| RRIRVRPPRLPRPRPRPALLPRP | -0.211 |
| RRIRDRPPRLPRPRPRPRALPRP | 0.226 |
| RRIRWRPPRLPRPRPRPKVWPRP | 0.68 |

| Sequence | shrunken log2 fold change |
| --- | --- |
| RRIRMRPPRLPRPRPRPKQHPRP | 0.675 |
| RRIRLRPPRLPRPRPRPAQLPRP | 0.166 |
| RRIRHRPPRLPRPRPRPWPDPRP | -0.0062 |
| RRIRKRPPRLPRPRPRPCQVPRP | -0.00846 |
| RRIRDRPPRLPRPRPRPNDSPRP | -0.134 |
| RRIRKRPPRLPRPRPRPPPSPRP | 0.911 |
| RRIRYRPPRLPRPRPRPPASPRP | 0.249 |
| RRIRMRPPRLPRPRPRPQPEPRP | 0.582 |
| RRIRERPPRLPRPRPRPAIRPRP | -0.0312 |
| RRIRRRPPRLPRPRPRPIWSPRP | -0.000832 |
| RRIRDRPPRLPRPRPRPSCAPRP | -0.0293 |
| RRIRFRPPRLPRPRPRPNSSPRP | -0.247 |
| RRIRNRPPRLPRPRPRPKRHPRP | -0.455 |
| RRIRVRPPRLPRPRPRPSFSPRP | -0.498 |
| RRIRLRPPRLPRPRPRPWLGPRP | 0.181 |
| RRIRFRPPRLPRPRPRPQANPRP | -0.0788 |
| RRIRKRPPRLPRPRPRPKENPRP | 0.189 |
| RRIRKRPPRLPRPRPRPFAPPRP | 0.792 |
| RRIRHRPPRLPRPRPRPYVRPRP | 0.017 |
| RRIRPRPPRLPRPRPRPAEVPRP | -0.0315 |
| RRIRARPPRLPRPRPRPKLVPRP | 0.106 |
| RRIRLRPPRLPRPRPRPRPHPRP | 0.364 |
| RRIRQRPPRLPRPRPRPESWPRP | 0.461 |
| RRIRPRPPRLPRPRPRPEWTPRP | 0.22 |
| RRIRQRPPRLPRPRPRPMIEPRP | -0.118 |

| Sequence | shrunken log2 fold change |
| --- | --- |
| RRIRVRPPRLPRPRPRPYVYPRP | -0.0156 |
| RRIRIRPPRLPRPRPRPYGFPRP | -0.0889 |
| RRIRLRPPRLPRPRPRPIPYPRP | -0.401 |
| RRIRRRPPRLPRPRPRPVAAPRP | 1.42 |
| RRIRFRPPRLPRPRPRPKPAPRP | 0.739 |
| RRIRHRPPRLPRPRPRPTLFPRP | 0.267 |
| RRIRFRPPRLPRPRPRPPACPRP | 0.628 |
| RRIRFRPPRLPRPRPRPAPRPRP | 0.84 |
| RRIRTRPPRLPRPRPRPNMFPRP | -0.315 |
| RRIRRRPPRLPRPRPRPCPCPRP | -0.176 |
| RRIRYRPPRLPRPRPRPYCNPRP | -0.515 |
| RRIRHRPPRLPRPRPRPLRHPRP | -0.132 |
| RRIRGRPPRLPRPRPRPQGGPRP | 0.127 |
| RRIRSRPPRLPRPRPRPKVDPRP | 0.093 |
| RRIRRRPPRLPRPRPRPPFFPRP | 0.565 |
| RRIRCRPPRLPRPRPRPKMKPRP | -0.269 |
| RRIRLRPPRLPRPRPRPTMAPRP | -0.283 |
| RRIRNRPPRLPRPRPRPNETPRP | -0.0424 |
| RRIRTRPPRLPRPRPRPEFMPRP | 0.0647 |
| RRIRGRPPRLPRPRPRPQLRPRP | 0.139 |
| RRIRERPPRLPRPRPRPQDEPRP | -0.941 |
| RRIRCRPPRLPRPRPRPICPPRP | -0.148 |
| RRIRCRPPRLPRPRPRPSLNPRP | -0.341 |
| RRIRMRPPRLPRPRPRPSGPPRP | 0.205 |
| RRIRFRPPRLPRPRPRPNMPPRP | -0.443 |
